Data: article PMC5030626, “G-quadruplex aptamer targeting Protein A and its capability to detect Staphylococcus aureus demonstrated by ELONA”

Experiments:
[1] = target: T1, Protein A, native (Staphylococcus aureus, UniProt P38507 37-477); assay: ELONA; ELONA and bead assay: 100 mM NaCl, 20 mM Tris-HCl pH 7.6, 10 mM MgCl2, 5 mM KCl, 1 mM CaCl2, 0.005% Tween 20, 21 C; CD: 25 mM Britton-Robinson pH 7.6, 100 mM NaCl, 10 mM MgCl2, 1 mM CaCl2, 5 mM KCl; details: protein: native; label: 3'-biotin; G4 (parallel, di-/multimers) plus 5' imperfect hairpin
[2] = target: T2, Protein A, recombinant (P7837) (Staphylococcus aureus, UniProt P02976 37-327); assay: as above; details: protein: recombinant
[3] = target: T1, Protein A, native; assay: CD difference spectrum; ELONA and bead assay: 100 mM NaCl, 20 mM Tris-HCl pH 7.6, 10 mM MgCl2, 5 mM KCl, 1 mM CaCl2, 0.005% Tween 20, 21 C; CD: 25 mM Britton-Robinson pH 7.6, 100 mM NaCl, 10 mM MgCl2, 1 mM CaCl2, 5 mM KCl
[4] = target: T2, Protein A, recombinant (P7837); assay: ELONA; signal in range of library control; ELONA and bead assay: 100 mM NaCl, 20 mM Tris-HCl pH 7.6, 10 mM MgCl2, 5 mM KCl, 1 mM CaCl2, 0.005% Tween 20, 21 C; CD: 25 mM Britton-Robinson pH 7.6, 100 mM NaCl, 10 mM MgCl2, 1 mM CaCl2, 5 mM KCl

B1: PA#2/8 (3'Bio) (structured_DNA)
DNA: ATACCAGCTTATTCAATTAGCAACATGAGGGGGATAGAGGGGGTGGGTTCTCTCGGCTACAATCGTAATCAGTTAG
Q: What does the source list for B1?
A: binding result [1]: binds; Kd ([2]; label: 3'-biotin, G4 (parallel, di-/multimers) plus 5' imperfect hairpin): 101 ± 5.9 nM

B2: PA#2/8 (unlabelled) (structured_DNA)
DNA: ATACCAGCTTATTCAATTAGCAACATGAGGGGGATAGAGGGGGTGGGTTCTCTCGGCTACAATCGTAATCAGTTAG
Q: Does B2 bind ([3]; G4 (parallel, di-/multimers) plus 5' imperfect hairpin)?
A: binds

B3: PA#2/8 (5'Bio) (structured_DNA)
DNA: ATACCAGCTTATTCAATTAGCAACATGAGGGGGATAGAGGGGGTGGGTTCTCTCGGCTACAATCGTAATCAGTTAG
Q: Which Kd ([2]; label: 5'-biotin, G4 (parallel, di-/multimers) plus 5' imperfect hairpin) does the source give for B3 here?
A: 190 ± 13 nM

B4: PA#2/8[S1-43] (Bio) (structured_DNA)
DNA: ATACCAGCTTATTCAATTAGCAACATGAGGGGGATAGAGGGGG
Q: Does B4 bind ([4]; label: biotin (5' or 3'), G4, mainly monomer, plus 5' imperfect hairpin)?
A: no binding

B5: PA#2/8[S1-43] (unlabelled) (structured_DNA)
DNA: ATACCAGCTTATTCAATTAGCAACATGAGGGGGATAGAGGGGG
Q: Does B5 bind ([3]; G4, mainly monomer, plus 5' imperfect hairpin)?
A: binds

B6: PA#2/8[S1-50] (Bio) (structured_DNA)
DNA: ATACCAGCTTATTCAATTAGCAACATGAGGGGGATAGAGGGGGTGGGTTC
Q: Does B6 bind ([4]; label: biotin (5' or 3'; 3' on cells), G4 plus 5' imperfect hairpin)?
A: no binding

B7: PA#2/8[S1-50] (unlabelled) (structured_DNA)
DNA: ATACCAGCTTATTCAATTAGCAACATGAGGGGGATAGAGGGGGTGGGTTC
Q: Does B7 bind ([3]; G4 plus 5' imperfect hairpin)?
A: binds

B8: PA#2/8[S1-58] (3'Bio) (structured_DNA)
DNA: ATACCAGCTTATTCAATTAGCAACATGAGGGGGATAGAGGGGGTGGGTTCTCTCGGCT
Q: With B8 as the binder, how does the Kd ([2]; label: 3'-biotin, G4 plus 5' imperfect hairpin) read?
A: 11.3 ± 1.4 nM

B9: PA#2/8[S1-58] (5'Bio) (structured_DNA)
DNA: ATACCAGCTTATTCAATTAGCAACATGAGGGGGATAGAGGGGGTGGGTTCTCTCGGCT
Q: For B9, which Kd ([2]; label: 5'-biotin, G4 plus 5' imperfect hairpin) is on record?
A: 23.7 ± 2 nM

B10: PA#2/8[S1-58] (unlabelled) (structured_DNA)
DNA: ATACCAGCTTATTCAATTAGCAACATGAGGGGGATAGAGGGGGTGGGTTCTCTCGGCT
Q: Does B10 bind ([3]; G4 plus 5' imperfect hairpin)?
A: binds
